These results are taken from patent US5223421A, “Identification of methionine Nα-acetyltransferase” (The General Hospital Corporation, priority 1990, dated 1993).

The assay concerns the target T1, yeast methionine acetyltransferase (M-N^α AT) (Saccharomyces cerevisiae, UniProt Q06504).
T1 construct: a crude yeast homogenate from the aaa1 mutant strain; endogenous in cells; host or cells: Saccharomyces cerevisiae strain T3A-a (aaa1), crude lysate
T1 sequence (Q06504 1-195): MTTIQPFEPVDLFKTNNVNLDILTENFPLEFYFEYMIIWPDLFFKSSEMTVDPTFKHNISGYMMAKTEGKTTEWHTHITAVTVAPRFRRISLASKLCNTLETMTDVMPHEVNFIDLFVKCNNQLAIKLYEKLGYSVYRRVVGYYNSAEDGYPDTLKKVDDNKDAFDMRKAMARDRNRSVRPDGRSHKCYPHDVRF
T1 sequence (Q12387 2-796 partner limits assumed): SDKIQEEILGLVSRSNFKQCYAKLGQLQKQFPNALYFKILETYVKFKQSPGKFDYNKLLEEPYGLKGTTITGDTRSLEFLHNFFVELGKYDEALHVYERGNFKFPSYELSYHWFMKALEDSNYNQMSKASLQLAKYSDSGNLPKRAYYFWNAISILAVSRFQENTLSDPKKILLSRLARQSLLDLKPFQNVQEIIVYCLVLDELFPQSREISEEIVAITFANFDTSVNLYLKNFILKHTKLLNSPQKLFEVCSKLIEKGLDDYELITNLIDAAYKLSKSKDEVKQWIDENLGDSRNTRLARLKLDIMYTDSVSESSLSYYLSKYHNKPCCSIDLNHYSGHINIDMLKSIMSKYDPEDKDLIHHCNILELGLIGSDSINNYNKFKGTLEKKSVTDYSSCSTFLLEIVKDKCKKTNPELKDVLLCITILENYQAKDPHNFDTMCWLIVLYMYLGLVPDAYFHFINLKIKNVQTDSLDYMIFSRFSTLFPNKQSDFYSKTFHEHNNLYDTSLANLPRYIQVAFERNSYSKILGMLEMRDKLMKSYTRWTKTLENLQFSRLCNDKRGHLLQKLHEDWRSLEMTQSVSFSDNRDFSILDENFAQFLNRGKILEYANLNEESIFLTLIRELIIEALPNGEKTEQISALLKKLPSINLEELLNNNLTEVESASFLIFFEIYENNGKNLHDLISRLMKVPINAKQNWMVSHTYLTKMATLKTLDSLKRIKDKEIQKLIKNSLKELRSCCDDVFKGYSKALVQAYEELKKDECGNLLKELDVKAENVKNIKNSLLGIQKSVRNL
Briefly: Relative activity of yeast methionine acetyltransferase for N^α -acetylation of synthetic peptides (PAI analogues). The format is biochemical. Also on record: tested at 50 µM. The settings on record: Table 5; mean ± SD (N=3-5); normalized to yeast proteinase A inhibitor 3. The method, then: N^α -acetyltransferase activity was determined as previously described [Lee et al., J. Biol. Chem. 263:14948-14955 (1988)]. Aliquots of the lysate or chromatographic fractions were added to 1.5 ml Eppendorf tubes containing a reaction mixture of 50 mM HEPES, pH 7.4, 150 mM KCl, 1 mM DTT, 25 μM [^3 H] acetyl coenzyme A (0.5 μCi) and 50 μM synthetic peptide with an adjusted final volume of 100 μl. The assay mixture was incubated at 30° C. for 30 min. The reaction was stopped by adding 17 μl of 0.5M acetic acid and chilled in an ice bath. The reaction samples were filtered through SP membrane discs (Cuno) (previously pre-swollen in 0.5M acetic acid), and then washed three times with 1 ml of 0.5M acetic acid on a Millipore 1225 sampling manifold. The partially dried membranes were placed in scintillation cocktail and counted with a Beckman LS 3801 scintillation counter. One unit of activity was defined as the amount of enzyme able to transfer 1 pmol of [^3 H] acetyl group from [^3 H] acetyl coenzyme A to synthetic peptide per min under standard enzyme assay conditions defined above.
Proteinase A inhibitor 3 (PAI) (Tsunasawa et al., Methods Enzymol. 106:165-170 (1984); Wold, F., Trends Biochem Sci. 9:256-267 (1984); Driessen et al., CRC Crit. Rev. Biochem 18:281-325 (1985); Mullen et al., EMBO J. 8:2067-2075 (1989); Lee et al., J. Bacteriol. 171:5795-5802 (1989); Hershko et al., Proc. Natl. Acad. Sci. USA 81:7021-7025 (1984); Bachmair et al., Science 234:179-186 (1986); Arfin et al., Biochemistry 27:7979-7984 (1988); Persson et al., Eur. J. Biochem. 152:523-527 (1985); Huang al., Biochemistry 26:8242-8246 (1987); Lee et al., J. Biol. Chem. 263:14948-14955 (1988); Kamitani et al., J. Biol. Chem. 264:13188-13193 (1989)) is the only known yeast protein which is acetylated at its NH2 -terminal methionine residue (Biedermann et al., Carlsberg Res. Commun. 45:225-235 (1980)). […] The numbers in parentheses refer to the residue numbers, and the letters in parentheses refer to the amino acid sequence Abbreviations are as in FIG. 1. Data are reported as mean activity ±SD (N=3-5) and are normalized to the activity of the homogenate towards yeast proteinase A inhibitor 3. The sequence of this protein is:
Thus, by using PAI, its analogues and other peptides, the structural features of M-N^α AT substrates were studied. […] Only three of nineteen analogues were acetylated, although the efficiency of their acetylation varied from 9-55% (Asp>Glu>Gln). Although it was shown previously that iso-cytochrome c variant proteins (Met-Ile-Arg - - -, Met-Ile-Lys - - -, Met-Met-Asn - - -) can be N^α -acetylated in vivo (Tsunasawa et al., J. Biol. Chem. 260:5382-5391 (1985)), synthetic peptides mimicking the NH2 -terminal 24 amino acid residues of these iso-cytochrome c variants were not acetylated by the yeast M-N^αAT.

For the substance “MNTDQQKVSEIFQSSKEKLQGDAK (MNTDQQKVSEIFQSSKEKLQGDAK) [Proteinase A Inhibitor 3 (1-24) (Yeast)]”, the “Activity (%)” value turned out to be 100 ± 5%.
